Non-standard residues stand in square brackets, D forms with d. Primed or numbered codes have the meaning given here. DO3A10CM″ = chelating group at the N-terminus (X in the sequence tables); azaGly′ = aza-glycine residue at the C-terminus, with NH2; Bpa = N[C@@H](Cc1ccc(C(=O)c2ccccc2)cc1)C(=O)O; d2Nal = N[C@H](Cc1ccc2ccccc2c1)C(=O)O; 3Pal = N[C@@H](Cc1cccnc1)C(=O)O; DO3A10CM = not defined here; Bpa4 = non-natural residue; Dnalg1 = not defined here; Ahgly = not defined here; Ampa4 = not defined here; Ampc4 = not defined here; Ampg4 = not defined here; Gufe4 = not defined here; Hypt4 = not defined here; Mogly = not defined here; dAfe4 = not defined here; Ppt4 = not defined here; Thz′ = not defined here; Tha = not defined here; azaGly = NNC(=O)O; Sar = CNCC(=O)O
What was measured:
[1] = biological target: LHRH receptor (LHRH binding sites) on EFO-27 human ovarian cancer cells (human); assay: competition with [125I-Tyr8]BRU-2477, EFO-27 cells
[2] = biological target: LHRH binding sites on EFO-27 human ovarian cancer cells (human); assay: competition with [125I-Tyr8]BRU-2477 on EFO-27 cells

Row | EC50 [1] [nM] | EC50 [2] [nM] | factor of reduced binding against BRU-2813 [2] [fold] | times more potent than BRU-2439 [2] [times] | Binder
1 | 250 |  |  |  | XHWSHXWXPX (Ac-Amfe4 at 1; Darg at 6; Bpa4 at 8; azaGly-NH2 at 10) [BRU-2839]
2 | 410 |  |  |  | KXRWSHXWXPX (Lys(DO3A10CM) before 1 (chelator on the Lys side chain); Dnal2 at 1; Darg at 6; Bpa4 at 8; azaGly-NH2 at 10) [BRU-3098]
3 | 320 | 320 |  |  | DO3A10CM-[d2Nal]RWSH[dR]W[Bpa][Ampc4][azaGly′]-NH2 (reading uncertain; also: printed as DO3A10CM-Dnal2-Arg-Trp-Ser-His-Darg-Trp-Bpa4-Ampc4-azaGly-NH2) [BRU-3062]
4 | 280 | 280 |  |  | DO3A10CM-[d2Nal]RWSH[dR]W[Bpa4][Hypt4][azaGly]-NH2 (reading uncertain) [BRU-2952]
5 | 220 | 220 |  |  | XRWSHXWXP (Sar at 1; Darg at 6; Bpa4 at 8; C-terminal Da15o3pt at 10) [BRU-3007]
6 |  | 550 |  |  | GXRWSHXWXPX (DO3A10CM-Gly (linker) on N-terminus; AA1 Tic; AA6 Darg; AA8 Bpa4; AA10 azaGly-NH2) [BRU-3052]
7 | 310 |  |  |  | XRWSHRWXPX (N-terminal DO3A10CM; Dnal2 at 1; Bpa4 at 8; azaGly-NH2 at 10 (L-Arg at 6)) [BRU-3031]
8 | 340 | 340 |  |  | DO3A10CM-G[Mogly]HWSH[dR]W[Bpa]P[azaGly]-NH2 (reading uncertain) [BRU-2796]
9 | 500 | 500 |  |  | DO3A10CM-G[Ahgly]HWSH[dR]W[Bpa]P[azaGly]-NH2 (reading uncertain) [BRU-2876]
10 | 460 | 460 |  |  | XRWSHXWXP (N-terminal DO3A10CM; Dnal2 at 1; Darg at 6; Bpa4 at 8; C-terminal A1gua5o3pt at 10) [BRU-2985]
11 | 400 | 400 |  |  | XRWSHXWXP (N-terminal DO3A10CM; Dnal2 at 1; Darg at 6; Bpa4 at 8; C-terminal Gua (guanidine) at 10) [BRU-2984]
12 | 400 | 400 |  |  | XRWSXXWXPX (N-terminal DO3A10CM; Dnal2 at 1; Fur3ala at 5; Darg at 6; Bpa4 at 8; azaGly-NH2 at 10) [BRU-2960]
13 | 450 | 450 |  |  | XRWSHXWXP (N-terminal DO3A10CM; Dnal2 at 1; Darg at 6; Bpa4 at 8; C-terminal Mo2abn at 10) [BRU-3020]
14 |  | 1380 |  |  | XHWSHXWXPX (AA1 Ac-Amfe4 with (DO3A10CM) as printed; AA6 Darg; AA8 Bpa4; AA10 azaGly-NH2) [BRU-2881]
15 |  | 10000 |  |  | {DO3A10CM″}-[Sar][His(pime)]WSH[dR]W[Bpa]P[azaGly]-NH2 [BRU-2759]
16 | 360 |  |  |  | HWSHXWXPX (N-terminal DO3A10CM on His (AA1 absent); Darg at AA6; Bpa4 at AA8; azaGly-NH2 at AA10) [BRU-2811]
17 | 250 | 250 |  |  | XHWSHXWYPX (HELM PEPTIDE1{[Sar].H.W.S.H.[dR].W.Y.P.[O=C(NN[*:1])[*:2]].[am]}$$$$V2.0; N-terminus assumed; SMILES CNCC(=O)N[C@@H](Cc1c[nH]cn1)C(=O)N[C@@H](Cc1c[nH]c2ccccc12)C(=O)N[C@@H](CO)C(=O)N[C@@H](Cc1c[nH]cn1)C(=O)N[C@H](CCCNC(=N)N)C(=O)N[C@@H](Cc1c[nH]c2ccccc12)C(=O)N[C@@H](Cc1ccc(O)cc1)C(=O)N1CCC[C@H]1C(=O)NNC(N)=O) [BRU-2439]
18 | 430 |  |  |  | XRFSHXWXPX (N-terminal DO3A10CM; Dnal2 at 1; Darg at 6; Bpa4 at 8; azaGly-NH2 at 10) [BRU-3106]
19 | 420 | 420 |  |  | XRWSHXWXP (N-terminal DO3A10CM; Dnal2 at 1; Darg at 6; Bpa4 at 8; C-terminal Ap (aminophenyl) at 10) [BRU-3006]
20 | 340 | 340 |  |  | DO3A10CM-[d2Nal][Ampg4]WSH[dR]W[Bpa]P[azaGly′]-NH2 (reading uncertain; also: printed as DO3A10CM-Dnal2-Ampg4-Trp-Ser-His-Darg-Trp-Bpa4-Pro-azaGly-NH2) [BRU-3060]
21 | 270 |  |  |  | XRWNHXWXPX (N-terminal DO3A10CM; Dnal2 at 1; Darg at 6; Bpa4 at 8; azaGly-NH2 at 10) [BRU-2956]
22 | 140 | 140 |  | 2 | XHWSHXWXPX (AA1 Sar; AA6 Darg; AA8 Bpa4; AA10 azaGly-NH2) [BRU-2441]
23 | 470 |  |  |  | HRWSHXWXPX (N-terminal DO3A10CM; Darg at 6; Bpa4 at 8; azaGly-NH2 at 10) [BRU-3025]
24 | 150 | 150 |  |  | XRWXHXWXPX (N-terminal DO3A10CM; Dnal2 at 1; Amfe4 at 4; Darg at 6; Bpa4 at 8; azaGly-NH2 at 10) [BRU-3115]
25 |  | 3150 |  |  | DO3A10CM-G[Thz′]HWSH[dR]W[Bpa]P[azaGly]-NH2 (reading uncertain) [BRU-2728]
26 | 470 |  |  |  | GXRWSHXWXPX (N-terminal DO3A10CM; Gly linker before 1; Dnal2 at 1; Darg at 6; Bpa4 at 8; azaGly-NH2 at 10) [BRU-2962]
27 |  | 12800 |  |  | DO3A10CM-[Sar][Tha]WSH[dR]W[Bpa]P[azaGly]-NH2 (reading uncertain) [BRU-2768]

The next lines start with the binder.

Row | Binder | EC50 [1] [nM] | EC50 [2] [nM] | factor of reduced binding against BRU-2813 [2] [fold] | times more potent than BRU-2439 [2] [times]
28 | XRWSHXWXPX (DO3A10CM on N-terminus; AA1 Nal2; AA6 Darg; AA8 Bpa4; AA10 azaGly-NH2) [BRU-3051] |  | 620 |  | 
29 | DO3A10CM-[d2Nal]RWMH[dR]W[Bpa]P[azaGly]-NH2 (reading uncertain; also: printed as DO3A10CM-Dnal2-Arg-Trp-Met-His-Darg-Trp-Bpa4-Pro-azaGly-NH2) [BRU-2964] | 220 |  |  | 
30 | DO3A10CM-[Sar][dAfe4]WSH[dR]W[Bpa]P[azaGly]-NH2 (reading uncertain) [BRU-2815] |  | 7250 |  | 
31 | DO3A10CM-[Sar][3Pal]WSH[dR]W[Bpa]P[azaGly]-NH2 (reading uncertain) [BRU-2818] |  | 1620 |  | 
32 | DO3A10CM-[d2Nal]RWSH[dR]W[Bpa4]PGR-NH2 (reading uncertain) [BRU-2969] | 240 | 240 |  | 
33 | XHWSHXWXPX (Ac-Dnal2 at 1; Darg at 6; Bpa4 at 8; azaGly-NH2 at 10) [BRU-2803] | 260 |  |  | 
34 | DO3A10CM-[d2Nal][Gufe4]WSH[dR]W[Bpa]P[azaGly′]-NH2 (reading uncertain; also: printed as DO3A10CM-Dnal2-Gufe4-Trp-Ser-His-Darg-Trp-Bpa4-Pro-azaGly-NH2) [BRU-3058] | 260 | 260 |  | 
35 | XRRSHXWXPX (N-terminal DO3A10CM; Dnal2 at 1; Darg at 6; Bpa4 at 8; azaGly-NH2 at 10) [BRU-3111] | 250 |  |  | 
36 | GXRWSHXWXPX (DO3A10CM-Gly (linker) on N-terminus; AA1 Dtic; AA6 Darg; AA8 Bpa4; AA10 azaGly-NH2) [BRU-3067] |  | 510 |  | 
37 | XXRWSHXWXPX (N-terminal DO3A10CM; Ambz4 linker before 1; Dnal2 at 1; Darg at 6; Bpa4 at 8; azaGly-NH2 at 10) [BRU-2963] | 280 |  |  | 
38 | DO3A10CM-G[Dnalg1]HWSH[dR]W[Bpa]P[azaGly]-NH2 (reading uncertain) [BRU-2770] |  | 2700 |  | 
39 | XRWSHXWXP (N-terminal DO3A10CM; Dnal2 at 1; Darg at 6; Bpa4 at 8; C-terminal Az23m2po-NH2 at 10) [BRU-3021] | 500 | 500 |  | 
40 | XRWSHXWXPX (DO3A10CM on N-terminus; AA1 Cafe4; AA6 Darg; AA8 Bpa4; AA10 azaGly-NH2) [BRU-3092] |  | 2000 |  | 
41 | DO3A10CM-[d2Nal][Ampa4]WSH[dR]W[Bpa]P[azaGly′]-NH2 (reading uncertain; also: printed as DO3A10CM-Dnal2-Ampa4-Trp-Ser-His-Darg-Trp-Bpa4-Pro-azaGly-NH2) [BRU-3059] | 410 | 410 |  | 
42 | XXWSHXWXPX (DO3A10CM on N-terminus; AA1 Sar; AA2 4ClPhe; AA6 Darg; AA8 Bpa4; AA10 azaGly-NH2) [BRU-2719] |  | 630 |  | 
43 | XRWSHXWXPX (N-terminal DO3A10CM; Damfe4 at 1; Darg at 6; Bpa4 at 8; azaGly-NH2 at 10) [BRU-2997] | 330 |  |  | 
44 | XRWSRXWXPX (N-terminal DO3A10CM; Dnal2 at 1; Darg at 6; Bpa4 at 8; azaGly-NH2 at 10) [BRU-2959] | 250 | 250 |  | 
45 | DO3A10CM-[d2Nal]RWSH[dR]W[Bpa4][Ppt4][azaGly]-NH2 (reading uncertain) [BRU-2953] | 830 | 650 | 2 | 
46 | XRWSHXWXP (N-terminal DO3A10CM; Dnal2 at 1; Darg at 6; Bpa4 at 8; C-terminal Pheol at 10) [BRU-2983] | 450 | 450 |  | 
47 | XRWXHXWXPX (N-terminal DO3A10CM; Dnal2 at 1; Dap at 4; Darg at 6; Bpa4 at 8; azaGly-NH2 at 10) [BRU-2955] | 410 | 410 |  | 
48 | XRWSXXWXPX (N-terminal DO3A10CM; Dnal2 at 1; Orn at 5; Darg at 6; Bpa4 at 8; azaGly-NH2 at 10) [BRU-2961] | 350 | 350 |  | 
49 | DO3A10CM-[d2Nal]RWSH[dR]W[Bpa]PGQ-NH2 (reading uncertain; also: printed as DO3A10CM-Dnal2-Arg-Trp-Ser-His-Darg-Trp-Bpa4-Pro-Gly-Gln-NH2) [BRU-2971] | 490 | 490 |  | 
50 | XRWSHXWXPX (N-terminal DO3A10CM; Dnal2 at 1; Darg at 6; Nal2 at 8; azaGly-NH2 at 10) [BRU-3027] | 370 |  |  | 
51 | XHWSHXWXPX (pGlu at 1; Darg at 6; Bpa4 at 8; azaGly-NH2 at 10) [BRU-2822] | 420 |  |  | 
52 | XRWSHXWXPX (DO3A10CM on N-terminus; AA1 Sar; AA6 Darg; AA8 Bpa4; AA10 azaGly-NH2) [BRU-2817] |  | 1700 |  | 
53 | RRWSHXWXPX (N-terminal DO3A10CM; Darg at 6; Bpa4 at 8; azaGly-NH2 at 10) [BRU-3050] | 310 |  |  | 
